Measurements as given in IntAct's records for PubMed 25910212.

B1: Cyclin-dependent kinase 4 (Homo sapiens), P11802 (parent)
chain: MATSRYEPVAEIGVGAYGTVYKARDPHSGHFVALKSVRVPNGGGGGGGLPISTVREVALLRRLEAFEHPNVVRLMDVCATSRTDREIKVTLVFEHVDQDLRTYLDKAPPPGLPAETIKDLMRQFLRGLDFLHANCIVHRDLKPENILVTSGGTVKLADFGLARIYSYQMALTPVVVTLWYRAPEVLLQSTYATPVDMWSVGCIFAEMFRRKPLFCGNSEADQLGKIFDLIGLPPEDDWPRDVSLPRGAFPPRGPRPVQSVVPEMEESGAQLLLEMLTFNPHKRISAFRALQHSYLHKDEGNPE
B2: Keratin, type II cytoskeletal 1 (Homo sapiens), P04264 (parent)
chain: MSRQFSSRSGYRSGGGFSSGSAGIINYQRRTTSSSTRRSGGGGGRFSSCGGGGGSFGAGGGFGSRSLVNLGGSKSISISVARGGGRGSGFGGGYGGGGFGGGGFGGGGFGGGGIGGGGFGGFGSGGGGFGGGGFGGGGYGGGYGPVCPPGGIQEVTINQSLLQPLNVEIDPEIQKVKSREREQIKSLNNQFASFIDKVRFLEQQNQVLQTKWELLQQVDTSTRTHNLEPYFESFINNLRRRVDQLKSDQSRLDSELKNMQDMVEDYRNKYEDEINKRTNAENEFVTIKKDVDGAYMTKVDLQAKLDNLQQEIDFLTALYQAELSQMQTQISETNVILSMDNNRSLDLDSIIAEVKAQYEDIAQKSKAEAESLYQSKYEELQITAGRHGDSVRNSKIEISELNRVIQRLRSEIDNVKKQISNLQQSISDAEQRGENALKDAKNKLNDLEDALQQAKEDLARLLRDYQELMNTKLALDLEIATYRTLLEGEESRMSGECAPNVSVSVSTSHTTISGGGSRGGGGGGYGSGGSSYGSGGGSYGSGGGGGGGRGSYGSGGSSYGSGGGSYGSGGGGGGHGSYGSGSSSGGYRGGSGGGGGGSSGGRGSGGGSSGGSIGGRGSSSGGVKSSGGSSSVKFVSTTYSGVTR

Variants of: B1
Conditions: with ccnd1_human CCND1, P24385
Chain of ccnd1_human CCND1, P24385 (P24385 whole entry): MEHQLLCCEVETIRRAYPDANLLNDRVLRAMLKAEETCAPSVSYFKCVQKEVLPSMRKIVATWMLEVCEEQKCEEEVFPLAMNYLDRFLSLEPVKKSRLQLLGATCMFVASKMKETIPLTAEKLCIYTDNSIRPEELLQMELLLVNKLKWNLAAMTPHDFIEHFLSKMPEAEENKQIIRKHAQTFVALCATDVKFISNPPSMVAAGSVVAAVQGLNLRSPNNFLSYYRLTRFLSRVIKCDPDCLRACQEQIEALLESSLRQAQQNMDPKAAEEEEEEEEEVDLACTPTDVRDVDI

MATSRYEPVAEIGVGAYGTVYKAHDPHSGHFVALKSVRVPNGGGGGGGLPISTVREVALLRRLEAFEHPNVVRLMDVCATSRTDREIKVTLVFEHVDQDLRTYLDKAPPPGLPAETIKDLMRQFLRGLDFLHANCIVHRDLKPENILVTSGGTVKLADFGLARIYSYQMALTPVVVTLWYRAPEVLLQSTYATPVDMWSVGCIFAEMFRRKPLFCGNSEADQLGKIFDLIGLPPEDDWPRDVSLPRGAFPPRGPRPVQSVVPEMEESGAQLLLEMLTFNPHKRISAFRALQHSYLHKDEGNPE [R24H] was tested. Which “effect of a mutation on the interaction” value did it give?
The value was “with no effect”.

MATSRYEPVAEIGVGAYGTVYKARDPHSGHFVALKSVRVPSGGGGGGGLPISTVREVALLRRLEAFEHPNVVRLMDVCATSRTDREIKVTLVFEHVDQDLRTYLDKAPPPGLPAETIKDLMRQFLRGLDFLHANCIVHRDLKPENILVTSGGTVKLADFGLARIYSYQMALTPVVVTLWYRAPEVLLQSTYATPVDMWSVGCIFAEMFRRKPLFCGNSEADQLGKIFDLIGLPPEDDWPRDVSLPRGAFPPRGPRPVQSVVPEMEESGAQLLLEMLTFNPHKRISAFRALQHSYLHKDEGNPE [N41S] was tested. Which “effect of a mutation on the interaction” value did it give?
Its value is “with no effect”.

Variants of: B1
Conditions: with ccnd3_human CCND3, P30281
Chain of ccnd3_human CCND3, P30281 (P30281 whole entry): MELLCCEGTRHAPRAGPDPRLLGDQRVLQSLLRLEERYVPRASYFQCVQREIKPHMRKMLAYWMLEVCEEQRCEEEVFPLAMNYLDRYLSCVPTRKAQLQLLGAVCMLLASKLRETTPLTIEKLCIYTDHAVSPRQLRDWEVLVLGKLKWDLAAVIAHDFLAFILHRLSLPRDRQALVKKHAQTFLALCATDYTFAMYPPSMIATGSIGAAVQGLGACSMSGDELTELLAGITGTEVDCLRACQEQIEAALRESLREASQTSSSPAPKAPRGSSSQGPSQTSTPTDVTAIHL

MATSRYEPVAEIGVGAYGTVYKAHDPHSGHFVALKSVRVPNGGGGGGGLPISTVREVALLRRLEAFEHPNVVRLMDVCATSRTDREIKVTLVFEHVDQDLRTYLDKAPPPGLPAETIKDLMRQFLRGLDFLHANCIVHRDLKPENILVTSGGTVKLADFGLARIYSYQMALTPVVVTLWYRAPEVLLQSTYATPVDMWSVGCIFAEMFRRKPLFCGNSEADQLGKIFDLIGLPPEDDWPRDVSLPRGAFPPRGPRPVQSVVPEMEESGAQLLLEMLTFNPHKRISAFRALQHSYLHKDEGNPE [R24H] was tested. Which “effect of a mutation on the interaction” value did it give?
The value was “with no effect”.

How did the “effect of a mutation on the interaction” value turn out when MATSRYEPVAEIGVGAYGTVYKARDPHSGHFVALKSVRVPSGGGGGGGLPISTVREVALLRRLEAFEHPNVVRLMDVCATSRTDREIKVTLVFEHVDQDLRTYLDKAPPPGLPAETIKDLMRQFLRGLDFLHANCIVHRDLKPENILVTSGGTVKLADFGLARIYSYQMALTPVVVTLWYRAPEVLLQSTYATPVDMWSVGCIFAEMFRRKPLFCGNSEADQLGKIFDLIGLPPEDDWPRDVSLPRGAFPPRGPRPVQSVVPEMEESGAQLLLEMLTFNPHKRISAFRALQHSYLHKDEGNPE [N41S] was run?
The value was “with no effect”.

Variants of: B1
Conditions: with ccnd2_human CCND2, P30279
Chain of ccnd2_human CCND2, P30279 (P30279 whole entry): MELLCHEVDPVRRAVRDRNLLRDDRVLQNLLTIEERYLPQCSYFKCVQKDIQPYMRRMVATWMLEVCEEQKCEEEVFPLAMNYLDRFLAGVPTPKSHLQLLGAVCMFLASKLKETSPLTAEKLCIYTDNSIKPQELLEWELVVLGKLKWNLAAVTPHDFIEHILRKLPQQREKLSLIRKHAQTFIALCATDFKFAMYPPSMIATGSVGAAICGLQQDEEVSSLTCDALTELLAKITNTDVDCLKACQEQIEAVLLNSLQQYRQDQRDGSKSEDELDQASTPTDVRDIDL

How did the “effect of a mutation on the interaction” value turn out when MATSRYEPVAEIGVGAYGTVYKAHDPHSGHFVALKSVRVPNGGGGGGGLPISTVREVALLRRLEAFEHPNVVRLMDVCATSRTDREIKVTLVFEHVDQDLRTYLDKAPPPGLPAETIKDLMRQFLRGLDFLHANCIVHRDLKPENILVTSGGTVKLADFGLARIYSYQMALTPVVVTLWYRAPEVLLQSTYATPVDMWSVGCIFAEMFRRKPLFCGNSEADQLGKIFDLIGLPPEDDWPRDVSLPRGAFPPRGPRPVQSVVPEMEESGAQLLLEMLTFNPHKRISAFRALQHSYLHKDEGNPE [R24H] was run?
Its value is “with no effect”.

How did the “effect of a mutation on the interaction” value turn out when MATSRYEPVAEIGVGAYGTVYKARDPHSGHFVALKSVRVPSGGGGGGGLPISTVREVALLRRLEAFEHPNVVRLMDVCATSRTDREIKVTLVFEHVDQDLRTYLDKAPPPGLPAETIKDLMRQFLRGLDFLHANCIVHRDLKPENILVTSGGTVKLADFGLARIYSYQMALTPVVVTLWYRAPEVLLQSTYATPVDMWSVGCIFAEMFRRKPLFCGNSEADQLGKIFDLIGLPPEDDWPRDVSLPRGAFPPRGPRPVQSVVPEMEESGAQLLLEMLTFNPHKRISAFRALQHSYLHKDEGNPE [N41S] was run?
The value was “with no effect”.

Variants of: B1
Conditions: with cdn2b_human CDKN2B

How did the “effect of a mutation on the interaction” value turn out when MATSRYEPVAEIGVGAYGTVYKAHDPHSGHFVALKSVRVPNGGGGGGGLPISTVREVALLRRLEAFEHPNVVRLMDVCATSRTDREIKVTLVFEHVDQDLRTYLDKAPPPGLPAETIKDLMRQFLRGLDFLHANCIVHRDLKPENILVTSGGTVKLADFGLARIYSYQMALTPVVVTLWYRAPEVLLQSTYATPVDMWSVGCIFAEMFRRKPLFCGNSEADQLGKIFDLIGLPPEDDWPRDVSLPRGAFPPRGPRPVQSVVPEMEESGAQLLLEMLTFNPHKRISAFRALQHSYLHKDEGNPE [R24H] was run?
The value was “with no effect”.

For MATSRYEPVAEIGVGAYGTVYKARDPHSGHFVALKSVRVPSGGGGGGGLPISTVREVALLRRLEAFEHPNVVRLMDVCATSRTDREIKVTLVFEHVDQDLRTYLDKAPPPGLPAETIKDLMRQFLRGLDFLHANCIVHRDLKPENILVTSGGTVKLADFGLARIYSYQMALTPVVVTLWYRAPEVLLQSTYATPVDMWSVGCIFAEMFRRKPLFCGNSEADQLGKIFDLIGLPPEDDWPRDVSLPRGAFPPRGPRPVQSVVPEMEESGAQLLLEMLTFNPHKRISAFRALQHSYLHKDEGNPE [N41S], which “effect of a mutation on the interaction” value is on record?
The value was “with no effect”.

Variants of: B1
Conditions: with cdn2c_human CDKN2C

For MATSRYEPVAEIGVGAYGTVYKAHDPHSGHFVALKSVRVPNGGGGGGGLPISTVREVALLRRLEAFEHPNVVRLMDVCATSRTDREIKVTLVFEHVDQDLRTYLDKAPPPGLPAETIKDLMRQFLRGLDFLHANCIVHRDLKPENILVTSGGTVKLADFGLARIYSYQMALTPVVVTLWYRAPEVLLQSTYATPVDMWSVGCIFAEMFRRKPLFCGNSEADQLGKIFDLIGLPPEDDWPRDVSLPRGAFPPRGPRPVQSVVPEMEESGAQLLLEMLTFNPHKRISAFRALQHSYLHKDEGNPE [R24H], which “effect of a mutation on the interaction” value is on record?
The value was “disrupting interaction strength”.

Which “effect of a mutation on the interaction” value does the source give for MATSRYEPVAEIGVGAYGTVYKARDPHSGHFVALKSVRVPSGGGGGGGLPISTVREVALLRRLEAFEHPNVVRLMDVCATSRTDREIKVTLVFEHVDQDLRTYLDKAPPPGLPAETIKDLMRQFLRGLDFLHANCIVHRDLKPENILVTSGGTVKLADFGLARIYSYQMALTPVVVTLWYRAPEVLLQSTYATPVDMWSVGCIFAEMFRRKPLFCGNSEADQLGKIFDLIGLPPEDDWPRDVSLPRGAFPPRGPRPVQSVVPEMEESGAQLLLEMLTFNPHKRISAFRALQHSYLHKDEGNPE [N41S] here?
The value was “with no effect”.

Variants of: B1
Conditions: with cdn2b_human CDKN2B
Remark: another data set of the same source

MATSRYEPVAEIGVGAYGTVYKAHDPHSGHFVALKSVRVPNGGGGGGGLPISTVREVALLRRLEAFEHPNVVRLMDVCATSRTDREIKVTLVFEHVDQDLRTYLDKAPPPGLPAETIKDLMRQFLRGLDFLHANCIVHRDLKPENILVTSGGTVKLADFGLARIYSYQMALTPVVVTLWYRAPEVLLQSTYATPVDMWSVGCIFAEMFRRKPLFCGNSEADQLGKIFDLIGLPPEDDWPRDVSLPRGAFPPRGPRPVQSVVPEMEESGAQLLLEMLTFNPHKRISAFRALQHSYLHKDEGNPE [R24H] was tested. Which “effect of a mutation on the interaction” value did it give?
The value was “disrupting interaction strength”.

Variants of: B2
Conditions: with nup62_human NUP62, P37198
Chain of nup62_human NUP62, P37198 (P37198 whole entry): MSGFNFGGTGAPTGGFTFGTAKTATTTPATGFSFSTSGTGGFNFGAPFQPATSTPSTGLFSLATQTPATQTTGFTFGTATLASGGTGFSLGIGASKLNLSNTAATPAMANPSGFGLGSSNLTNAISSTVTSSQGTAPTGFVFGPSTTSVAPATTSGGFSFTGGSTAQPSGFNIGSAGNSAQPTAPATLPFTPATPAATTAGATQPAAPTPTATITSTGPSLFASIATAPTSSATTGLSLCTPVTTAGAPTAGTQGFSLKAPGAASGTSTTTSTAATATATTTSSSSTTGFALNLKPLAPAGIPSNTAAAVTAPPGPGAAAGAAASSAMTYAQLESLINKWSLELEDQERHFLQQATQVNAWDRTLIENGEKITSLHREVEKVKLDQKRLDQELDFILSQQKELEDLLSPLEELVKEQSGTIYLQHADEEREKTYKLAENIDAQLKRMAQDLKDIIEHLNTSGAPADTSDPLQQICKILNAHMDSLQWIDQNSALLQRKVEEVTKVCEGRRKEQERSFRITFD

How did the “effect of a mutation on the interaction” value turn out when L161P was run?
Its value is “causing an interaction”.

Variants of: B2
Conditions: with KRT15, P19012
Chain of KRT15, P19012 (P19012 whole entry): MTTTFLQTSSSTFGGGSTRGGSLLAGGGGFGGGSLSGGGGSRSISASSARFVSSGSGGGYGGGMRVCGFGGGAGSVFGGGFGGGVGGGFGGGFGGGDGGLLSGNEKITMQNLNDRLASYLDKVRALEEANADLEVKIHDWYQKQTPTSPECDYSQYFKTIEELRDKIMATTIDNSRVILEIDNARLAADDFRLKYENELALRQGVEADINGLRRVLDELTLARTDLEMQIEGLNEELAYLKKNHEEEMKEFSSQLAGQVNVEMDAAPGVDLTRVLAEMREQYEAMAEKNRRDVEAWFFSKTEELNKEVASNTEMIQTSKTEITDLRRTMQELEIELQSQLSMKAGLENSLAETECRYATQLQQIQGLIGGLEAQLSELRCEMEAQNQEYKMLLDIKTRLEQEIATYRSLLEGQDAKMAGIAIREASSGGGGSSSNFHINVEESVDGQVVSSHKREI

For L161P, which “effect of a mutation on the interaction” value is on record?
Its value is “causing an interaction”.

Variants of: B2
Conditions: with kt33b_human KRT33B

L161P was tested. Which “effect of a mutation on the interaction” value did it give?
The value was “causing an interaction”.

Variants of: B2
Conditions: with goga2_human GOLGA2, Q08379
Chain of goga2_human GOLGA2, Q08379 (Q08379 whole entry): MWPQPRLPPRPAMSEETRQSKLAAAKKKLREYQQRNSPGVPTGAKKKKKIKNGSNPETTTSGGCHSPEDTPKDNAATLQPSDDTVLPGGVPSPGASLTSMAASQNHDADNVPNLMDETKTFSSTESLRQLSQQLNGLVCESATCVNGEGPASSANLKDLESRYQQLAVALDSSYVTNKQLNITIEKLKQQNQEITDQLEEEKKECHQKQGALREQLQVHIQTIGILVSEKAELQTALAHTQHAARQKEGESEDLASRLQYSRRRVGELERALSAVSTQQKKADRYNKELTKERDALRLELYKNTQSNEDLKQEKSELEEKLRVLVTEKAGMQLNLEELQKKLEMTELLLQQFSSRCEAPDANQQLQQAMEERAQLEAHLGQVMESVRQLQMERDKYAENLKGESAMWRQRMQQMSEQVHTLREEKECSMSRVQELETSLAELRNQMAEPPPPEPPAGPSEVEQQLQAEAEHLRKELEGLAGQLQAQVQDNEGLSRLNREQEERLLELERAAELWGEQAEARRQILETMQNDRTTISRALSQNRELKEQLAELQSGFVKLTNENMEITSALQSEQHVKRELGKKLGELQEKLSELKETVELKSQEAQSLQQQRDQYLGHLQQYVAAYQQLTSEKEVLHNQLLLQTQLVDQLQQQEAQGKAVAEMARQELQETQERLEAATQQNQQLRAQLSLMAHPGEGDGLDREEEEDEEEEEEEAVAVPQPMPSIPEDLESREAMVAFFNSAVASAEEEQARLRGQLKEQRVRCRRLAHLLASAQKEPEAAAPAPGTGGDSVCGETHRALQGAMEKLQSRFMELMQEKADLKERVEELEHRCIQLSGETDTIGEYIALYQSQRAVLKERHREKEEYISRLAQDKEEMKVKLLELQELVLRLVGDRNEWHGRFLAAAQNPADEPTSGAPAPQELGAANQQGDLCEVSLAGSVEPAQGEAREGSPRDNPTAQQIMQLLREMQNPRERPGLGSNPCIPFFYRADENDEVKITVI

For L161P, which “effect of a mutation on the interaction” value is on record?
Its value is “causing an interaction”.

Variants of: B2
Conditions: with KRT15, P19012
Remark: another data set of the same source

For L161P, which “effect of a mutation on the interaction” value is on record?
The value was “with no effect”.

Variants of: B2
Conditions: with kt33b_human KRT33B
Remark: another data set of the same source

How did the “effect of a mutation on the interaction” value turn out when L161P was run?
The value was “with no effect”.
